{"source": "patent US20240116985A1", "about": "(published 2024)", "note": "Starred links: 1 amine or outer side, 2 acyl side, 3 side chain; linkers in the order of their positions; H or OH if unused. Positions of bridges follow the written chain, without caps; N, C: chain ends. Non-standard residues stand in square brackets, D forms with d. Primed or numbered codes have the meaning given here. *: point of attachment. PyrS2″ = (S)-3-amino-1-((pent-4-en-1-yloxy)carbonyl)pyrrolidine-3-carboxylic acid (stapling residue), C=CCCCOC(=O)N1CC[C@@](N[*:1])(C(=O)[*:2])C1; B5(16) = 2-amino-2-(pent-4-en-1-yl)hept-6-enoic acid = 2,2-bis(4-pentenyl)glycine (stitching residue), C=CCCCC(CCCC=C)(N[*:1])C(=O)[*:2]; B5(4) = 2,2-bis(4-pentenyl)glycine = 2-amino-2-(pent-4-en-1-yl)hept-6-enoic acid (stitching residue), C=CCCCC(CCCC=C)(N[*:1])C(=O)[*:2]; TfeGA = (S)-2-amino-3-((carboxymethyl)(2,2,2-trifluoroethyl)amino)propanoic acid, O=C([C@H](CN(CC(=O)[*:3])CC(F)(F)F)N[*:1])[*:2]; PyrS2 = (S)-3-amino-1-((pent-4-en-1-yloxy)carbonyl)pyrrolidine-3-carboxylic acid, C=CCCCOC(=O)N1CC[C@@](N[*:1])(C(=O)[*:2])C1; 4MePipBz = 4-((4-methylpiperazin-1-yl)methyl)benzoyl on Lys side chain, CN1CCN(Cc2ccc(C(=O)*)cc2)CC1; MeBipipAc = 1'-methyl-[1,4'-bipiperidine]-4-carbonyl on Lys side chain, CN1CCC(N2CCC(C(=O)*)CC2)CC1; 35CF3PhPr = 3-(3,5-bis(trifluoromethyl)phenyl)propanoyl, O=C(CCc1cc(C(F)(F)F)cc(C(F)(F)F)c1)*; B5(3) = 2,2-bis(4-pentenyl)glycine (stitching residue), C=CCCCC(CCCC=C)(N[*:1])C(=O)[*:2]; Me3AdamantC = 3,5,7-trimethyladamantane-1-carbonyl, CC12CC3(C)CC(C)(C1)CC(C(=O)*)(C2)C3; MeMorphBz = 4-(morpholinomethyl)benzoyl on Lys side chain, O=C(c1ccc(CN2CCOCC2)cc1)*; B5 = 2-amino-2-(pent-4-en-1-yl)hept-6-enoic acid, C=CCCCC(CCCC=C)(N[*:1])C(=O)[*:2]; 22PhPr = 2,2-diphenylpropanoyl on Lys side chain, CC(C(=O)*)(c1ccccc1)c1ccccc1; Propanoyl(3-(1-naphthyl)) = O=C(CCc1cccc2ccccc12)*; Acetyl(4-Me-piperazin-1-yl) = CN1CCN(CC(=O)*)CC1; Phe(3-CONH2) = NC(=O)c1cccc(C[C@H](N)C(=O)O)c1; Phe(2-CF3) = N[C@@H](Cc1ccccc1C(F)(F)F)C(=O)O; Phe(2-CONH2) = NC(=O)c1ccccc1C[C@H](N)C(=O)O; Ala(cPent) = N[C@@H](CC1CCCC1)C(=O)O; Bta = N[C@@H](Cc1csc2ccccc12)C(=O)O; αAllylPro = C=CC[C@@]1(C(=O)O)CCCN1; Morpholinoacetyl = O=C(CN1CCOCC1)*; tBuAla = CC(C)(C)C[C@H](N)C(=O)O; 3Thi = N[C@@H](Cc1ccsc1)C(=O)O; AdamantC = not defined here; PyrS2(4) = not defined here", "data": [{"molecular_target": "T1, B-cat-Halo (UniProt P35222 1-781)", "T1 sequence (looked up)": "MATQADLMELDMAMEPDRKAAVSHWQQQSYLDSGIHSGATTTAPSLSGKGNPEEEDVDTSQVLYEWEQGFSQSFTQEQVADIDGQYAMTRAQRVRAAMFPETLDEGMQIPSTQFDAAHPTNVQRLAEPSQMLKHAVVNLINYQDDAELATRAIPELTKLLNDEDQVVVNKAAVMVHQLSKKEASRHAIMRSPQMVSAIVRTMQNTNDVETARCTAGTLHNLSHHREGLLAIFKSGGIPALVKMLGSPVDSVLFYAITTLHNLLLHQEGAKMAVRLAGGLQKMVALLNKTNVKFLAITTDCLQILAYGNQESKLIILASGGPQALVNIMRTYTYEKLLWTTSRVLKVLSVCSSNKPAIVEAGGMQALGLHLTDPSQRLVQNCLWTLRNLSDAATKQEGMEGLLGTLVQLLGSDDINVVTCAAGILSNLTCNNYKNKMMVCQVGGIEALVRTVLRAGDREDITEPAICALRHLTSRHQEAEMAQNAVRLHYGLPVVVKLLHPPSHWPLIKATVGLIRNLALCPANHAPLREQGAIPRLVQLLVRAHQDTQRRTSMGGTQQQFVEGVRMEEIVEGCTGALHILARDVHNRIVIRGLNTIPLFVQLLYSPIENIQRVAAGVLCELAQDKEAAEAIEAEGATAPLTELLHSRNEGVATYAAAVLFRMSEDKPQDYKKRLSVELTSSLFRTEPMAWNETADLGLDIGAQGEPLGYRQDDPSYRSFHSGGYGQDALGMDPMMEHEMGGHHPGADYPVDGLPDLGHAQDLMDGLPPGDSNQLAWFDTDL", "assay": "cell-based or functional assay", "units": {"NanoBRET Abs IC50": "µM"}, "values": [{"binder": "Ac-[αAllylPro]D[tBuAla][B5(16)]D[TfeGA]AAFL[PyrS2″][3Thi][Bta]N-NH2 (staple 1-4, 4-11)", "note": "[I-1705]", "NanoBRET Abs IC50": 2.9}, {"binder": "Ac-[αAllylPro]D[tBuAla][B5]D[TfeGA]AAFL[PyrS2][Ala(cPent)][Bta]Q-NH2 (staple 1-4, 4-11)", "note": "[I-1703]", "NanoBRET Abs IC50": 6.6}, {"binder": "Ac-[αAllylPro]D[tBuAla][B5(4)]D[TfeGA]AAFL[PyrS2″][3Thi][Bta][Phe(3-CONH2)]-NH2 (staple 1-4, 4-11)", "note": "[I-1708]", "NanoBRET Abs IC50": 11.9}, {"binder": "Ac-[αAllylPro]D[tBuAla][B5(4)]D[TfeGA]AAFL[PyrS2″][3Thi][Bta][Phe(2-CONH2)]-NH2 (staple 1-4, 4-11)", "note": "[I-1707]", "NanoBRET Abs IC50": 6.1}, {"binder": "Ac-[αAllylPro]D[tBuAla][B5(16)]D[TfeGA]AAFL[PyrS2″][Phe(2-CF3)][Bta]Q-NH2 (staple 1-4, 4-11)", "note": "[I-1704]", "NanoBRET Abs IC50": 5.3}]}, {"molecular_target": "T2, B-cat-Halo (beta-catenin HaloTag NanoBRET construct expressed in HEK293 cells) (UniProt P35222 1-781)", "T2 sequence (looked up)": "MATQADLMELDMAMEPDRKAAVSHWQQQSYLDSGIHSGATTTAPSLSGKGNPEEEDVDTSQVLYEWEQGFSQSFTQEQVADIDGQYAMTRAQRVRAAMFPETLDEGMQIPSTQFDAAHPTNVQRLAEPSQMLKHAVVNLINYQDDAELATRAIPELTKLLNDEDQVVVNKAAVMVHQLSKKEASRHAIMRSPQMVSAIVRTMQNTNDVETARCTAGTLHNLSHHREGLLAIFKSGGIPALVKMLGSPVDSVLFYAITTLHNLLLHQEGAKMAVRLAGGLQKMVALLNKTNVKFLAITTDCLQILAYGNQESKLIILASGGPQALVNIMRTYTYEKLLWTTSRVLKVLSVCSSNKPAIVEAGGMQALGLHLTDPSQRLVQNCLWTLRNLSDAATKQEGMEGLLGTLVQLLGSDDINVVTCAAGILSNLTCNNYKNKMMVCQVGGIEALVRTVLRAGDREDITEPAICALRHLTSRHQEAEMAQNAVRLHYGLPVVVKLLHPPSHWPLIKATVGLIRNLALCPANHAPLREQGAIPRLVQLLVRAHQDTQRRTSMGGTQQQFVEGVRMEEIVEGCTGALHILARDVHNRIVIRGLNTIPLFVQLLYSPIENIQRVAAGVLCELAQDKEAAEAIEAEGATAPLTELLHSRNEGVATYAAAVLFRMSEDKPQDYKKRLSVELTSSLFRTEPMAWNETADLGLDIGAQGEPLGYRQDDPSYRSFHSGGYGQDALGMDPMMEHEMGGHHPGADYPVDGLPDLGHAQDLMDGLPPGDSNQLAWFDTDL", "assay": "cell-based or functional assay", "units": {"NanoBRET Abs IC50": "µM"}, "values": [{"binder": "Ac-[αAllylPro]D[tBuAla][B5(3)]DDAAFN[PyrS2″][3Thi][Bta]QK(4MePipBz)-NH2 (staple 1-4, 4-11)", "note": "[I-908]", "NanoBRET Abs IC50": 26}, {"binder": "Ac-[αAllylPro]D[tBuAla][B5(3)]DDAAFN[PyrS2″][3Thi][Bta]QK(Acetyl(4-Me-piperazin-1-yl))-NH2 (staple 1-4, 4-11)", "note": "[I-906]", "NanoBRET Abs IC50": 26.5}, {"binder": "Ac-[αAllylPro]D[tBuAla][B5(3)]DDAK(Me3AdamantC)FN[PyrS2][3Thi][Bta]Q-NH2 (staple 1-4, 4-11)", "note": "[I-900]", "NanoBRET Abs IC50": "> 20"}, {"binder": "Ac-[αAllylPro]D[tBuAla][B5(3)]DDAAFN[PyrS2″][3Thi][Bta]QK(MeBipipAc)-NH2 (staple 1-4, 4-11)", "note": "[I-907]", "NanoBRET Abs IC50": 27.8}, {"binder": "Ac-[αAllylPro]D[tBuAla][B5(3)]DDAAFN[PyrS2″][3Thi][Bta]QK(Propanoyl(3-(1-naphthyl)))-NH2 (staple 1-4, 4-11)", "note": "[I-903]", "NanoBRET Abs IC50": 7.8}, {"binder": "Ac-[αAllylPro]D[tBuAla][B5(3)]DDAAFN[PyrS2″][3Thi][Bta]QK(22PhPr)-NH2 (staple 1-4, 4-11)", "note": "[I-904]", "NanoBRET Abs IC50": 20}, {"binder": "Ac-[αAllylPro]D[tBuAla][B5(3)]DDAAFN[PyrS2][3Thi][Bta]QK(35CF3PhPr)-NH2 (staple 1-4, 4-11)", "note": "[I-902]", "NanoBRET Abs IC50": 21.2}, {"binder": "Ac-[αAllylPro]D[tBuAla][B5(3)]DDAAFN[PyrS2″][3Thi][Bta]QK(MeMorphBz)-NH2 (staple 1-4, 4-11)", "note": "[I-909]", "NanoBRET Abs IC50": 28.4}, {"binder": "Ac-[αAllylPro]D[tBuAla][B5(3)]DDAAFN[PyrS2″][3Thi][Bta]QK(Morpholinoacetyl)-NH2 (staple 1-4, 4-11)", "note": "[I-905]", "NanoBRET Abs IC50": 31.6}, {"binder": "Ac-[αAllylPro]D[tBuAla][B5(3)]DDAK(AdamantC)FN[PyrS2(4)][3Thi][Bta]Q-NH2 (staple 1-4, 4-11; reading uncertain)", "note": "[I-899]", "NanoBRET Abs IC50": "> 20"}]}]}
